# Article PMC6736723
# Molecular target: Scl1.41 on the surface of M41-type GAS cells (MGAS6183 wild type and Δscl1::scl1.41) (Streptococcus pyogenes (group A Streptococcus), M41-type strain MGAS6183)
Substance,"reduction in GAS (WT M41) adherence to CAF-derived matrices after 30 min pre-incubation of the cells with rTnFn1-5, against untreated WT [%]","reduction in GAS (WT M41) adherence to CAF-derived matrices after 30 min pre-incubation of the cells with rTnFn6-8, against untreated WT [%]"
recombinant tenascin-C fibronectin type III repeats 1-5 (rTnFn1-5) (domain or fragment),70,
recombinant tenascin-C fibronectin type III repeats 6-8 (rTnFn6-8) (domain or fragment),,40
